What was measured:
[1] = target: human recombinant protein HER2-ECD with his-tag (human) (UniProt P04626); assay: ELISA on coated HER2-ECD, average of three independent assays
[2] = target: human recombinant protein HER2-ECD with his-tag (human) (UniProt P04626); assay: ELISA on coated HER2-ECD

Chain of RC48-VC-MMAF (VH): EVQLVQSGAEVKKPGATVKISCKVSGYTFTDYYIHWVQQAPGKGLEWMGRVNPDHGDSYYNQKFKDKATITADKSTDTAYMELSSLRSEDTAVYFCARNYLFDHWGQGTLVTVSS
Chain of RC48-VC-MMAF (VL): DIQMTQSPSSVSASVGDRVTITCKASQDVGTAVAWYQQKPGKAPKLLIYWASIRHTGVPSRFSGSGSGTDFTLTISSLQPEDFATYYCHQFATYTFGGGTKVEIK
Chain of RC48-mc-vc-pAB-MMAE (VH): as the sequence (VH) above
Chain of RC48-mc-vc-pAB-MMAE (VL): as the sequence (VL) above
Chain of humanized anti-HER2 monoclonal antibody RC48 (VH): as the sequence (VH) above
Chain of humanized anti-HER2 monoclonal antibody RC48 (VL): as the sequence (VL) above

Row | Substance | Kd [1] | Binding affinity [2] | Mole equivalent [2]
1 | human-mouse chimeric anti-HER2 antibody cRC48 | 0.077 nM | – | –
2 | RC48-mc-vc-pAB-MMAE | – | 2.24 ng/mL | 15.2
3 | humanized anti-HER2 monoclonal antibody RC48 | 0.044 nM | – | –
4 | RC48-VC-MMAF | – | 3.35 ng/mL | 13.5
